Measured values: the supplement of paper PMC10567573

B1: SPACA3 (parent)
chain: FTSGFNAAALDYEADGSTNNGIFQ

Variants of: B1
Assay: protein stability index of a GFP-peptide fusion (GPS, HEK-293T) (PSI 1-6); higher = more stable
Details: c terminus: a fixed tail appended
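Further: lentivirally expressed fusions sorted by FACS into six bins by GFP to DsRed ratio, PSI derived from sequencing read proportions per bin multiplied by bin number.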

**Q.** Which protein stability index does the source give for FTSGFNAAALDYEADGGTNNGIFQ here?
**A.** Its protein stability index is 2.05.

**Q.** Which protein stability index does the source give for FTSGFNAAALDYEADGHTNNGIFQ here?
**A.** Its protein stability index is 2.31.

**Q.** For FTSGFNAAALDYEADGITNNGIFQ, which protein stability index is on record?
**A.** The protein stability index was 1.96.

**Q.** Which protein stability index does the source give for FTSGFNAAALDYEADGKTNNGIFQ here?
**A.** Its protein stability index is 1.87.

**Q.** With FTSGFNAAALDYEADGLTNNGIFQ as the variant, how does the protein stability index read?
**A.** Its protein stability index is 1.71.

**Q.** For FTSGFNAAALDYEADGMTNNGIFQ, which protein stability index is on record?
**A.** The protein stability index was 1.48.

**Q.** With FTSGFNAAALDYEADGNTNNGIFQ as the variant, how does the protein stability index read?
**A.** The protein stability index was 2.21.

**Q.** For FTSGFNAAALDYEADGPTNNGIFQ, which protein stability index is on record?
**A.** The protein stability index was 2.05.

**Q.** Which protein stability index does the source give for FTSGFNAAALDYEADGQTNNGIFQ here?
**A.** Its protein stability index is 2.35.

**Q.** For FTSGFNAAALDYEADGRTNNGIFQ, which protein stability index is on record?
**A.** The protein stability index was 1.95.

**Q.** Which protein stability index does the source give for FTSGFNAAALDYEADGTTNNGIFQ here?
**A.** The protein stability index was 2.19.

**Q.** Which protein stability index does the source give for FTSGFNAAALDYEADGVTNNGIFQ here?
**A.** The protein stability index was 2.06.

**Q.** With FTSGFNAAALDYEADGWTNNGIFQ as the variant, how does the protein stability index read?
**A.** Its protein stability index is 2.1.

**Q.** For FTSGFNAAALDYEADGYTNNGIFQ, which protein stability index is on record?
**A.** The protein stability index was 1.93.

**Q.** For FTSGFNAAALDYEADGSANNGIFQ, which protein stability index is on record?
**A.** Its protein stability index is 1.87.

**Q.** Which protein stability index does the source give for FTSGFNAAALDYEADGSCNNGIFQ here?
**A.** Its protein stability index is 2.

**Q.** Which protein stability index does the source give for FTSGFNAAALDYEADGSDNNGIFQ here?
**A.** Its protein stability index is 2.06.

**Q.** Which protein stability index does the source give for FTSGFNAAALDYEADGSENNGIFQ here?
**A.** The protein stability index was 2.27.

**Q.** For FTSGFNAAALDYEADGSFNNGIFQ, which protein stability index is on record?
**A.** Its protein stability index is 1.78.

**Q.** For FTSGFNAAALDYEADGSGNNGIFQ, which protein stability index is on record?
**A.** The protein stability index was 2.31.

**Q.** For FTSGFNAAALDYEADGSHNNGIFQ, which protein stability index is on record?
**A.** The protein stability index was 1.83.

**Q.** For FTSGFNAAALDYEADGSINNGIFQ, which protein stability index is on record?
**A.** Its protein stability index is 2.14.

**Q.** For FTSGFNAAALDYEADGSKNNGIFQ, which protein stability index is on record?
**A.** Its protein stability index is 2.78.

**Q.** Which protein stability index does the source give for FTSGFNAAALDYEADGSLNNGIFQ here?
**A.** Its protein stability index is 2.07.

**Q.** Which protein stability index does the source give for FTSGFNAAALDYEADGSMNNGIFQ here?
**A.** Its protein stability index is 1.95.

**Q.** For FTSGFNAAALDYEADGSNNNGIFQ, which protein stability index is on record?
**A.** Its protein stability index is 1.7.

**Q.** For FTSGFNAAALDYEADGSPNNGIFQ, which protein stability index is on record?
**A.** Its protein stability index is 1.83.

**Q.** With FTSGFNAAALDYEADGSQNNGIFQ as the variant, how does the protein stability index read?
**A.** Its protein stability index is 1.82.

**Q.** Which protein stability index does the source give for FTSGFNAAALDYEADGSRNNGIFQ here?
**A.** Its protein stability index is 2.02.

**Q.** For FTSGFNAAALDYEADGSSNNGIFQ, which protein stability index is on record?
**A.** Its protein stability index is 2.08.

**Q.** For FTSGFNAAALDYEADGSVNNGIFQ, which protein stability index is on record?
**A.** Its protein stability index is 1.5.

**Q.** With FTSGFNAAALDYEADGSWNNGIFQ as the variant, how does the protein stability index read?
**A.** Its protein stability index is 1.59.

**Q.** With FTSGFNAAALDYEADGSYNNGIFQ as the variant, how does the protein stability index read?
**A.** Its protein stability index is 2.02.

**Q.** Which protein stability index does the source give for FTSGFNAAALDYEADGSTANGIFQ here?
**A.** The protein stability index was 1.67.

**Q.** For FTSGFNAAALDYEADGSTCNGIFQ, which protein stability index is on record?
**A.** Its protein stability index is 2.31.

**Q.** With FTSGFNAAALDYEADGSTDNGIFQ as the variant, how does the protein stability index read?
**A.** Its protein stability index is 2.38.

**Q.** Which protein stability index does the source give for FTSGFNAAALDYEADGSTENGIFQ here?
**A.** The protein stability index was 2.23.

**Q.** With FTSGFNAAALDYEADGSTFNGIFQ as the variant, how does the protein stability index read?
**A.** The protein stability index was 2.24.

**Q.** For FTSGFNAAALDYEADGSTGNGIFQ, which protein stability index is on record?
**A.** Its protein stability index is 2.03.

**Q.** For FTSGFNAAALDYEADGSTHNGIFQ, which protein stability index is on record?
**A.** The protein stability index was 2.52.

**Q.** With FTSGFNAAALDYEADGSTINGIFQ as the variant, how does the protein stability index read?
**A.** The protein stability index was 1.79.

**Q.** Which protein stability index does the source give for FTSGFNAAALDYEADGSTKNGIFQ here?
**A.** The protein stability index was 1.63.

**Q.** With FTSGFNAAALDYEADGSTLNGIFQ as the variant, how does the protein stability index read?
**A.** Its protein stability index is 1.78.

**Q.** Which protein stability index does the source give for FTSGFNAAALDYEADGSTMNGIFQ here?
**A.** The protein stability index was 2.21.

**Q.** Which protein stability index does the source give for FTSGFNAAALDYEADGSTPNGIFQ here?
**A.** The protein stability index was 2.21.

**Q.** With FTSGFNAAALDYEADGSTQNGIFQ as the variant, how does the protein stability index read?
**A.** The protein stability index was 2.44.

**Q.** With FTSGFNAAALDYEADGSTRNGIFQ as the variant, how does the protein stability index read?
**A.** Its protein stability index is 1.66.

**Q.** Which protein stability index does the source give for FTSGFNAAALDYEADGSTSNGIFQ here?
**A.** The protein stability index was 2.38.

**Q.** With FTSGFNAAALDYEADGSTTNGIFQ as the variant, how does the protein stability index read?
**A.** Its protein stability index is 1.84.

**Q.** For FTSGFNAAALDYEADGSTVNGIFQ, which protein stability index is on record?
**A.** The protein stability index was 1.76.

**Q.** With FTSGFNAAALDYEADGSTWNGIFQ as the variant, how does the protein stability index read?
**A.** Its protein stability index is 1.55.

**Q.** Which protein stability index does the source give for FTSGFNAAALDYEADGSTYNGIFQ here?
**A.** Its protein stability index is 1.83.

**Q.** With FTSGFNAAALDYEADGSTNAGIFQ as the variant, how does the protein stability index read?
**A.** The protein stability index was 2.31.

**Q.** Which protein stability index does the source give for FTSGFNAAALDYEADGSTNCGIFQ here?
**A.** The protein stability index was 2.33.

**Q.** Which protein stability index does the source give for FTSGFNAAALDYEADGSTNDGIFQ here?
**A.** The protein stability index was 2.51.

**Q.** With FTSGFNAAALDYEADGSTNEGIFQ as the variant, how does the protein stability index read?
**A.** The protein stability index was 2.21.

**Q.** For FTSGFNAAALDYEADGSTNFGIFQ, which protein stability index is on record?
**A.** Its protein stability index is 2.03.

**Q.** With FTSGFNAAALDYEADGSTNGGIFQ as the variant, how does the protein stability index read?
**A.** Its protein stability index is 1.96.

**Q.** Which protein stability index does the source give for FTSGFNAAALDYEADGSTNHGIFQ here?
**A.** The protein stability index was 1.75.

**Q.** For FTSGFNAAALDYEADGSTNIGIFQ, which protein stability index is on record?
**A.** Its protein stability index is 1.9.

**Q.** For FTSGFNAAALDYEADGSTNKGIFQ, which protein stability index is on record?
**A.** Its protein stability index is 1.98.

**Q.** With FTSGFNAAALDYEADGSTNLGIFQ as the variant, how does the protein stability index read?
**A.** The protein stability index was 2.04.

**Q.** Which protein stability index does the source give for FTSGFNAAALDYEADGSTNMGIFQ here?
**A.** Its protein stability index is 1.87.

**Q.** For FTSGFNAAALDYEADGSTNPGIFQ, which protein stability index is on record?
**A.** Its protein stability index is 2.28.

**Q.** For FTSGFNAAALDYEADGSTNQGIFQ, which protein stability index is on record?
**A.** The protein stability index was 1.84.

**Q.** Which protein stability index does the source give for FTSGFNAAALDYEADGSTNRGIFQ here?
**A.** The protein stability index was 1.66.

**Q.** With FTSGFNAAALDYEADGSTNSGIFQ as the variant, how does the protein stability index read?
**A.** Its protein stability index is 2.15.

**Q.** With FTSGFNAAALDYEADGSTNTGIFQ as the variant, how does the protein stability index read?
**A.** The protein stability index was 1.93.

**Q.** Which protein stability index does the source give for FTSGFNAAALDYEADGSTNVGIFQ here?
**A.** The protein stability index was 2.

**Q.** With FTSGFNAAALDYEADGSTNWGIFQ as the variant, how does the protein stability index read?
**A.** Its protein stability index is 1.43.

**Q.** Which protein stability index does the source give for FTSGFNAAALDYEADGSTNYGIFQ here?
**A.** The protein stability index was 2.19.

**Q.** Which protein stability index does the source give for FTSGFNAAALDYEADGSTNNAIFQ here?
**A.** The protein stability index was 1.91.

**Q.** With FTSGFNAAALDYEADGSTNNCIFQ as the variant, how does the protein stability index read?
**A.** Its protein stability index is 1.97.

**Q.** Which protein stability index does the source give for FTSGFNAAALDYEADGSTNNDIFQ here?
**A.** Its protein stability index is 1.9.

**Q.** With FTSGFNAAALDYEADGSTNNEIFQ as the variant, how does the protein stability index read?
**A.** The protein stability index was 2.28.

**Q.** Which protein stability index does the source give for FTSGFNAAALDYEADGSTNNFIFQ here?
**A.** Its protein stability index is 1.8.

**Q.** With FTSGFNAAALDYEADGSTNNHIFQ as the variant, how does the protein stability index read?
**A.** The protein stability index was 1.98.

**Q.** Which protein stability index does the source give for FTSGFNAAALDYEADGSTNNIIFQ here?
**A.** Its protein stability index is 1.51.

**Q.** Which protein stability index does the source give for FTSGFNAAALDYEADGSTNNKIFQ here?
**A.** Its protein stability index is 2.33.

**Q.** For FTSGFNAAALDYEADGSTNNLIFQ, which protein stability index is on record?
**A.** The protein stability index was 2.06.

**Q.** With FTSGFNAAALDYEADGSTNNMIFQ as the variant, how does the protein stability index read?
**A.** The protein stability index was 1.51.

**Q.** With FTSGFNAAALDYEADGSTNNNIFQ as the variant, how does the protein stability index read?
**A.** The protein stability index was 1.84.

**Q.** With FTSGFNAAALDYEADGSTNNPIFQ as the variant, how does the protein stability index read?
**A.** The protein stability index was 2.12.

**Q.** For FTSGFNAAALDYEADGSTNNQIFQ, which protein stability index is on record?
**A.** The protein stability index was 1.7.

**Q.** Which protein stability index does the source give for FTSGFNAAALDYEADGSTNNRIFQ here?
**A.** Its protein stability index is 1.75.

**Q.** For FTSGFNAAALDYEADGSTNNSIFQ, which protein stability index is on record?
**A.** Its protein stability index is 1.72.

**Q.** For FTSGFNAAALDYEADGSTNNTIFQ, which protein stability index is on record?
**A.** The protein stability index was 2.02.

**Q.** With FTSGFNAAALDYEADGSTNNVIFQ as the variant, how does the protein stability index read?
**A.** Its protein stability index is 1.98.

**Q.** For FTSGFNAAALDYEADGSTNNWIFQ, which protein stability index is on record?
**A.** The protein stability index was 1.58.

**Q.** With FTSGFNAAALDYEADGSTNNYIFQ as the variant, how does the protein stability index read?
**A.** Its protein stability index is 1.75.

**Q.** With FTSGFNAAALDYEADGSTNNGAFQ as the variant, how does the protein stability index read?
**A.** Its protein stability index is 2.36.

**Q.** With FTSGFNAAALDYEADGSTNNGCFQ as the variant, how does the protein stability index read?
**A.** The protein stability index was 1.74.

**Q.** For FTSGFNAAALDYEADGSTNNGDFQ, which protein stability index is on record?
**A.** Its protein stability index is 2.41.

**Q.** For FTSGFNAAALDYEADGSTNNGEFQ, which protein stability index is on record?
**A.** Its protein stability index is 2.4.
